We go through five sequences from the supplement of paper PMC5998384.

In data set [1] the test system is HeLa Kyoto. Nature of the data set: solubility in G1/S (NP-40 vs SDS abundance) (log2 ratio); higher = more soluble. To be noted: cell cycle stage: G1/S.
Data set [2] concerns HeLa Kyoto. Nature of the data set: melting temperature (median over replicates), in situ; higher = more thermally stable.
In data set [3] the test system is HeLa Kyoto. Nature of the data set: thermal stability score vs G1/S (z-score of summed log2 fold changes over temperatures); higher = more thermally stable than in G1/S.
The test system of data set [4] is HeLa Kyoto. Nature of the data set: solubility change mitosis vs G1/S (difference of NP-40 vs SDS log2 ratios) (log2 ratio difference); higher = more soluble in mitosis.
The mark [5] stands for this setting: cell cycle stage: early G1 (4.5 h after nocodazole release).
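For melting temperature (median over replicates), in situ in this document: HeLa Kyoto cells synchronized by double thymidine or nocodazole block, proteins quantified by TMT10plex mass spectrometry, three independent biological replicates.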
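For solubility change mitosis vs G1/S (difference of NP-40 vs SDS log2 ratios) in this document: synchronized HeLa Kyoto cells (double thymidine block for G1/S, nocodazole release for mitosis), protein amounts in NP-40 versus SDS lysates quantified by mass spectrometry, three biological replicates.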
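For solubility in G1/S (NP-40 vs SDS abundance) in this document: HeLa Kyoto cells arrested at G1/S by double thymidine block, proteins quantified by TMT10plex mass spectrometry in mild NP-40 versus SDS extracts, three biological replicates.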
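For thermal stability score vs G1/S (z-score of summed log2 fold changes over temperatures) in this document: synchronized HeLa Kyoto cells, proteins quantified by TMT10plex mass spectrometry, three biological replicates, mitosis taken 0.5 h after nocodazole release, G1/S directly after double thymidine block.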

On to “MNRSHRHGAGSGCLGTMEVKSKFGAEFRRFSLERSKPGKFEEFYGLLQHVHKIPNVDVLVGYADIHGDLLPINNDDNYHKAVSTANPLLRIFIQKKEEADYSAFGTDTLIKKKNVLTNVLRPDNHRKKPHIVISMPQDFRPVSSIIDVDILPETHRRVRLYKYGTEKPLGFYIRDGSSVRVTPHGLEKVPGIFISRLVPGGLAQSTGLLAVNDEVLEVNGIEVSGKSLDQVTDMMIANSRNLIITVRPANQRNNVVRNSRTSGSSGQSTDNSLLGYPQQIEPSFEPEDEDSEEDDIIIEDNGVPQQIPKAVPNTESLESLTQIELSFESGQNGFIPSNEVSLAAIASSSNTEFETHAPDQKLLEEDGTIITL [PARD6B]”, for which the “solubility in G1/S (log2)” value with HeLa Kyoto [1] is -0.226. The melting temperature in the data set on HeLa Kyoto [2] (cell cycle stage: G1/S) was 51 °C. The thermal stability score is -0.366 with HeLa Kyoto [3] (setting [5]) and -0.685 with HeLa Kyoto [3] (cell cycle stage: mitosis). Besides, in the data set with HeLa Kyoto [4], the “solubility change mitosis (log2)” value is 0.0857.

Regarding “MECPHLSSSVCIAPDSAKFPNGSPSSWCCSVCRSNKSPWVCLTCSSVHCGRYVNGHAKKHYEDAQVPLTNHKKSEKQDKVQHTVCMDCSSYSTYCYRCDDFVVNDTKLGLVQKVREHLQNLENSAFTADRHKKRKLLENSTLNSKLLKVNGSTTAICATGLRNLGNTCFMNAILQSLSNIEQFCCYFKELPAVELRNGKTAGRRTYHTRSQGDNNVSLVEEFRKTLCALWQGSQTAFSPESLFYVVWKIMPNFRGYQQQDAHEFMRYLLDHLHLELQGGFNGVSRSAILQENSTLSASNKCCINGASTVVTAIFGGILQNEVNCLICGTESRKFDPFLDLSLDIPSQFRSKRSKNQENGPVCSLRDCLRSFTDLEELDETELYMCHKCKKKQKSTKKFWIQKLPKVLCLHLKRFHWTAYLRNKVDTYVEFPLRGLDMKCYLLEPENSGPESCLYDLAAVVVHHGSGVGSGHYTAYATHEGRWFHFNDSTVTLTDEETVVKAKAYILFYVEHQAKAGSDKL [USP3]”, the “solubility in G1/S (log2)” value with HeLa Kyoto [1] is -0.0307. The melting temperature in the data set with HeLa Kyoto [2] (cell cycle stage: G1/S) and in the data set with HeLa Kyoto [2] (cell cycle stage: mitosis) was 49.4 °C in each case. Further, the thermal stability score with HeLa Kyoto [3] (setting [5]) turned out to be 0.817; in the data set on HeLa Kyoto [3] (cell cycle stage: mitosis), 1.54. Further, the “solubility change mitosis (log2)” value in the data set on HeLa Kyoto [4] was -0.13.

“MAAAPPLSKAEYLKRYLSGADAGVDRGSESGRKRRKKRPKPGGAGGKGMRIVDDDVSWTAISTTKLEKEEEEDDGDLPVVAEFVDERPEEVKQMEAFRSSAKWKLLGGHNEDLPSNRHFRHDTPDSSPRRVRHGTPDPSPRKDRHDTPDPSPRRARHDTPDPSPLRGARHDSDTSPPRRIRHDSSDTSPPRRARHDSPDPSPPRRPQHNSSGASPRRVRHDSPDPSPPRRARHGSSDISSPRRVHNNSPDTSRRTLGSSDTQQLRRARHDSPDLAPNVTYSLPRTKSGKAPERASSKTSPHWKESGASHLSFPKNSKYEYDPDISPPRKKQAKSHFGDKKQLDSKGDCQKATDSDLSSPRHKQSPGHQDSDSDLSPPRNRPRHRSSDSDLSPPRRRQRTKSSDSDLSPPRRSQPPGKKAAHMYSGAKTGLVLTDIQREQQELKEQDQETMAFEAEFQYAETVFRDKSGRKRNLKLERLEQRRKAEKDSERDELYAQWGKGLAQSRQQQQNVEDAMKEMQKPLARYIDDEDLDRMLREQEREGDPMANFIKKNKAKENKNKKVRPRYSGPAPPPNRFNIWPGYRWDGVDRSNGFEQKRFARLASKKAVEELAYKWSVEDM [BUD13]”: in the data set on HeLa Kyoto [1], the “solubility in G1/S (log2)” value was -0.884. Also, the melting temperature with HeLa Kyoto [2] (cell cycle stage: G1/S) was determined as 52.9 °C; in the data set on HeLa Kyoto [2] (cell cycle stage: mitosis), 53 °C. For the same sequence, the thermal stability score with HeLa Kyoto [3] (setting [5]) is 0.0865; in the data set on HeLa Kyoto [3] (cell cycle stage: mitosis) it was -0.687. Moreover, the “solubility change mitosis (log2)” value with HeLa Kyoto [4] was determined as 0.878.

In the case of “MEDPQSKEPAGEAVALALLESPRPEGGEEPPRPSPEETQQCKFDGQETKGSKFITSSASDFSDPVYKEIAITNGCINRMSKEELRAKLSEFKLETRGVKDVLKKRLKNYYKKQKLMLKESNFADSYYDYICIIDFEATCEEGNPPEFVHEIIEFPVVLLNTHTLEIEDTFQQYVRPEINTQLSDFCISLTGITQDQVDRADTFPQVLKKVIDWMKLKELGTKYKYSLLTDGSWDMSKFLNIQCQLSRLKYPPFAKKWINIRKSYGNFYKVPRSQTKLTIMLEKLGMDYDGRPHCGLDDSKNIARIAVRMLQDGCELRINEKMHAGQLMSVSSSLPIEGTPPPQMPHFRK [ERI1]”, the “solubility in G1/S (log2)” value with HeLa Kyoto [1] was -0.0987. Moreover, the figures for the melting temperature in the data set on HeLa Kyoto [2] (cell cycle stage: G1/S) and in the data set on HeLa Kyoto [2] (cell cycle stage: mitosis) were 51 °C and 49.9 °C, respectively. Also, the thermal stability score with HeLa Kyoto [3] (setting [5]) is -0.616; in the data set with HeLa Kyoto [3] (cell cycle stage: mitosis), 0.0498. Also, the “solubility change mitosis (log2)” value in the data set on HeLa Kyoto [4] was -0.00712.

As to “MVAACRSVAGLLPRRRRCFPARAPLLRVALCLLCWTPAAVRAVPELGLWLETVNDKSGPLIFRKTMFNSTDIKLSVKSFHCSGPVKFTIVWHLKYHTCHNEHSNLEELFQKHKLSVDEDFCHYLKNDNCWTTKNENLDCNSDSQVFPSLNNKELINIRNVSNQERSMDVVARTQKDGFHIFIVSIKTENTDASWNLNVSLSMIGPHGYISASDWPLMIFYMVMCIVYILYGILWLTWSACYWKDILRIQFWIAAVIFLGMLEKAVFYSEYQNISNTGLSTQGLLIFAELISAIKRTLARLLVIIVSLGYGIVKPRLGTVMHRVIGLGLLYLIFAAVEGVMRVIGGSNHLAVVLDDIILAVIDSIFVWFIFISLAQTMKTLRLRKNTVKFSLYRHFKNTLIFAVLASIVFMGWTTKTFRIAKCQSDWMERWVDDAFWSFLFSLILIVIMFLWRPSANNQRYAFMPLIDDSDDEIEEFMVTSENLTEGIKLRASKSVSNGTAKPATSENFDEDLKWVEENIPSSFTDVALPVLVDSDEEIMTRSEMAEKMFSSEKIM [TMEM87B]”, the “solubility in G1/S (log2)” value with HeLa Kyoto [1] is -0.12. The melting temperature with HeLa Kyoto [2] (cell cycle stage: G1/S) amounted to 55.1 °C; in the data set with HeLa Kyoto [2] (cell cycle stage: mitosis), 54.9 °C. Besides, the thermal stability score with HeLa Kyoto [3] (setting [5]) was -3.16; in the data set on HeLa Kyoto [3] (cell cycle stage: mitosis) it was -3.29. In the data set with HeLa Kyoto [4], the “solubility change mitosis (log2)” value is -0.177.
